± gives the uncertainty stated by the source.
Assay: protein stability index of a GFP-peptide fusion (yeast GPS) (PSI 1-4); higher = more stable; sorted into four equal gates, so the index is relative within each strain
In short: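 The protein stability index of a peptide was calculated by multiplying its read frequency in each gate by that gate's number and adding the products. The peptides were tiled 17-residue stretches of yeast proteins, fused downstream of GFP on a Cherry-expressing plasmid and carried in yeast as a pooled library. Mid-log cultures in leucine-free medium were sorted into four equal gates by GFP/Cherry ratio, and each gate's plasmids were PCR-amplified and Illumina-sequenced.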

Sequence	protein stability index (doa10∆)	protein stability index (pdr5∆)	protein stability index (san1∆)	protein stability index (ubr1∆)
DNIRYATALQTCAGGRL [SMC2]	2.31 ± 0.086	3.02 ± 0.083	2.8 ± 0.11	1.62 ± 0.058
DNIYRNLQKIDKDSEEL [MED4]	2.85 ± 0.078	3.16 ± 0.058	2.85 ± 0.049	3.01 ± 0.054
DNKEKDFELEISWCSLS [PRE10]	3.54 ± 0.12	3.13 ± 0.14	2.87 ± 0.13	3.13 ± 0.088
DNLLEMSDHSLDKLNCA [RRP6]	3.28 ± 0.099	3 ± 0.068	3.22 ± 0.1	3.25 ± 0.049
DNLLLNLEQINEDLEDG [REC8]	2.81 ± 0.056	2.67 ± 0.066	2.71 ± 0.08	3.07 ± 0.061
DNVNSTTGSIFEKDLMA [BRN1]	2.98 ± 0.067	3.01 ± 0.068	3.07 ± 0.071	2.99 ± 0.041
DNVSFIEEAKSIRRQDY [REC8]	2.85 ± 0.12	3.06 ± 0.11	3.28 ± 0.09	3.15 ± 0.08
DPASFYLFDEIDAALDK [SMC3]	2.89 ± 0.075	3.02 ± 0.082	2.61 ± 0.083	2.72 ± 0.046
DPEKDSINATALAFGYV [SIN4]	2.16 ± 0.052	1.56 ± 0.058	1.52 ± 0.15	1.82 ± 0.042
DPLLSLYNFLHKYVLTL [RGR1]	2.5 ± 0.043	2.12 ± 0.07	2.49 ± 0.05	2.12 ± 0.046
DPPNEGDPFDYKAQADT [RPB3]	3.18 ± 0.13	3.42 ± 0.12	3.34 ± 0.12	3.12 ± 0.073
DPQHKAIRRDARYNWIC [RPL15A]	2.86 ± 0.088	3.31 ± 0.12	2.92 ± 0.16	3.11 ± 0.16
DPVLDWRKSDRELTKNI [SIR4]	2.89 ± 0.096	2.2 ± 0.083	2.52 ± 0.16	2.26 ± 0.08
DQFHRDTISAITHQLNN [RPC25]	1.54 ± 0.049	2.12 ± 0.057	1.84 ± 0.076	1.67 ± 0.034
DQFIRHVLRGVESPDKN [YCG1]	–	3.77 ± 0.2	3.18 ± 0.14	–
DQFITSLKCTDPYELKG [ITC1]	3.02 ± 0.12	2.66 ± 0.09	2.78 ± 0.088	2.95 ± 0.1
DQKIWPYLEKYPEYDQI [SSN3]	3.5 ± 0.12	3.08 ± 0.09	3.11 ± 0.065	3.43 ± 0.1
DQKPIEHIKEGSEIAIS [SWI3]	2.93 ± 0.058	3.21 ± 0.069	2.87 ± 0.064	2.92 ± 0.04
DQKTGRAKSSSHLFNEY [RPN4]	2.85 ± 0.25	3.22 ± 0.24	3.39 ± 0.12	3.46 ± 0.15
DQNPIQVVVDAITNTGP [RPS5]	2.35 ± 0.053	2.79 ± 0.041	2.76 ± 0.061	2.13 ± 0.041
DQQSPWLLRLELDRAAM [RPO21]	1.49 ± 0.22	1.83 ± 0.14	1.93 ± 0.13	2.66 ± 0.1
DQWLEEYKKHFPPNLEK [UBP6]	2.77 ± 0.081	3.06 ± 0.053	2.88 ± 0.05	2.96 ± 0.067
DRFKYRSVDRAGRKFKS [POP4]	3.04 ± 0.2	3.24 ± 0.18	3.52 ± 0.097	3.55 ± 0.16
DRFPLKLREPVARFLHF [ITC1]	1.69 ± 0.076	1.7 ± 0.067	1.79 ± 0.12	1.91 ± 0.046
DRHIGCAMSGLTADARS [PUP2]	2.67 ± 0.096	3.08 ± 0.12	–	2.69 ± 0.07
DRQLHEISTSKKNNLEF [RPN14]	2.96 ± 0.064	3.13 ± 0.075	2.93 ± 0.071	3.17 ± 0.093
DRRKARKAYFTAPSSER [RPL26B]	2.77 ± 0.17	2.72 ± 0.16	3.12 ± 0.082	3.1 ± 0.14

Sequence	protein stability index (doa10∆)	protein stability index (pdr5∆)	protein stability index (san1∆)	protein stability index (ubr1∆)
DRTMLAPMDFAIVVGWR [FAS1]	2.49 ± 0.075	2.43 ± 0.062	2.68 ± 0.062	1.77 ± 0.041
DRTQDRADVEDESNDID [RPC37]	3.33 ± 0.087	3.52 ± 0.092	3.13 ± 0.11	3.4 ± 0.073
DSEGSIKQTSDESTIKR [ECM29]	3.43 ± 0.11	3.56 ± 0.085	3.43 ± 0.068	3.41 ± 0.063
DSFENYFNQLKPYYFSN [RPN12]	2.66 ± 0.083	2.95 ± 0.1	2.97 ± 0.058	3.02 ± 0.056
DSFSVPNRLVKELQYDN [PRE2]	3.02 ± 0.18	2.94 ± 0.24	3.09 ± 0.11	3.37 ± 0.29
DSFTMPNISHSNIDYQT [SNF2]	2.4 ± 0.088	2.12 ± 0.1	2.49 ± 0.13	2.41 ± 0.072
DSLKKLLPQWDDDQIES [ARP9]	3.32 ± 0.14	3.17 ± 0.087	2.83 ± 0.071	3.17 ± 0.081
DSLNDDLNKENKLLRRK [YIL149C/MLP2]	2.98 ± 0.21	3.24 ± 0.18	3.01 ± 0.15	3.31 ± 0.065
DSLSGAVIAAIMQEAGL [RPT3]	–	1.14 ± 0.18	–	–
DSLTRAVKDQQKYTKEM [SNF2]	1.47 ± 0.19	1.8 ± 0.11	1.25 ± 0.15	–
DSQIVTPGELVTDDPIW [RRP4]	2.78 ± 0.19	3.07 ± 0.11	2.76 ± 0.095	2.94 ± 0.077
DSRTTTGAYIANRVTDK [PRE3]	2.99 ± 0.13	3.29 ± 0.11	2.89 ± 0.11	3.08 ± 0.082
DSSLQPEYFESPLQSSK [YMR129W/POM152]	3.19 ± 0.2	2.98 ± 0.12	–	2.56 ± 0.13
DSSTTSSNSQQSTPQPD [ITC1]	3.04 ± 0.046	2.85 ± 0.048	2.69 ± 0.044	2.95 ± 0.038
DSTVVYPLPKFPTTSHE [MED8]	2.75 ± 0.048	3.06 ± 0.051	2.92 ± 0.046	3.02 ± 0.054
DSVAAIGIPVNKASLAQ [QCR2]	2.63 ± 0.056	2.61 ± 0.052	2.52 ± 0.081	2.82 ± 0.042
DSYLILDTLPSEFDSRV [RPT5]	2.83 ± 0.09	3.48 ± 0.12	3.23 ± 0.062	3.1 ± 0.036
DTFLPPPPPPPSNFEIN [PRP8]	2.6 ± 0.039	2.57 ± 0.039	2.34 ± 0.04	2.33 ± 0.032
DTLLLLPTDGGLTSRLQ [POP4]	3.01 ± 0.14	3.06 ± 0.15	3.13 ± 0.095	3.26 ± 0.13
DTNAPVAATITSSQKEP [SRB8]	2.35 ± 0.14	2.79 ± 0.13	3.04 ± 0.086	2.96 ± 0.11
DTNNEADLMALENATWT [SNF12]	2.58 ± 0.074	3.18 ± 0.11	2.64 ± 0.087	2.94 ± 0.09
DTNSSKPKNTKENLSKS [SIR4]	1.33 ± 0.21	1.56 ± 0.12	2.05 ± 0.15	–
DTQTFSVLLQQLLTPGS [YGL172W/NUP49]	1.31 ± 0.13	1.43 ± 0.095	1.36 ± 0.1	1.48 ± 0.058
DTSAEKDQIQAGKWFDP [SIR4]	3.51 ± 0.12	3.57 ± 0.14	3.38 ± 0.12	3.38 ± 0.18
DTSYKIDGKTVSYKDYS [SMC1]	2.6 ± 0.049	2.79 ± 0.042	2.58 ± 0.046	2.95 ± 0.04
DTVNSALENDVATNIVN [YML103C/NUP188]	2.87 ± 0.051	3.14 ± 0.064	3.09 ± 0.046	3.19 ± 0.055

— the supplement of paper PMC9732359
